From the Human Domainome abundance scans (Beltran et al. 2025)

B1: Double-stranded RNA-binding protein Staufen homolog 1, residues 183 to 249; numbered along this chain, O95793 (parent)
chain: KSEISQVFEIALKRNLPVNFEVARESGPPHMKNFVTKVSVGEFVGEGEGKSKKISKKNAAIAVLEEL

Variants of: B1
Assay: abundance fitness (aPCA) (normalised: wild type 0, dead -1); higher = more abundant; growth selection in yeast, the domain comes from the species named
Details: Homo sapiens

Abundance fitness: each site, then its substitutions
G49: M -0.729; V -0.694; E -0.74; W -1.14; T -0.8; P -0.854; A -0.485; S -0.483; F -1.14; L -0.802; N -0.748; H -0.53; I -0.791; C -0.911; Y -1; D -0.519; Q -0.741
F43: L -0.126; R -0.482; I -0.197; E -0.44; G -0.63; S -0.272; T -0.195; D -0.628; N -0.437; C -0.262; H 0.014; P -0.649; M -0.255; A -0.124; K -0.317
K50: N 0.009; L -0.132; P 0.078; M -0.117; G -0.184; Q -0.036; I -0.145; R -0.006; D -0.17; F -0.406; V -0.127; S -0.007; C -0.036; A -0.035; E -0.004; T -0.048; W -0.221
V35: Q -0.093; L -0.021; G -0.497; K 0.048; E -0.393; T -0.02; M -0.083; I 0.046; W -0.186; P -0.502; A -0.256; D -0.511; S -0.111; F 0.033; N -0.35; R 0.04; H 0.029; Y -0.174
N33: M -0.128; H 0.016; Q -0.047; S -0.016; L -0.072; Y -0.255; P -0.386; R 0.008; A -0.219; F -0.29; G -0.221; E -0.269; W -0.054; I -0.117; T 0.052; D -0.376; V -0.115; C -0.163; K -0.011
G47: I -0.897; S -0.667; M -0.874; T -0.868; R -0.627; V -0.834; F -0.945; Y -0.945; P -0.763; C -0.976; E -0.773; W -1.01; Q -0.611; K -0.81; H -0.555
T36: N -0.674; K -0.689; G -0.664; D -0.6; C 0.046; P -0.671; A -0.251; W -1.12; R -0.768; F -1.38; V -0.684; S -0.204; Y -0.449; Q -0.548; M -0.749; L -1.04; I -1.1
F34: W 0.089; V -0.541; P -0.458; R -0.74; G -0.554; Q -0.447; D -0.578; M -0.56; N -0.468; H -0.544; S -0.54; E -0.56; I -0.372; T -0.428; L -0.698; C -0.547; Y 0.038; K -0.725
V40: H -0.783; A -0.501; Q -0.542; N -0.617; C -0.289; S -0.703; M -0.312; D -0.577; G -0.681; Y -0.809; K -0.851; L -0.199; F -0.564; I -0.514; E -0.555; W -1.3; T -0.541; P -0.442; R -0.811
E48: Q 0.054; M -0.013; I 0.128; R 0.104; W -0.011; V 0.048; S 0.007; K 0.089; A 0.001; H -0.061; Y 0.002; P -0.808; C 0.064; T 0.037; F -0.01; L -0.044; N -0.045; D -0.427
M31: V -0.099; Y -0.089; R 0.025; W -0.208; S 0.113; T 0.019
S39: Y -0.051; W -0.119; Q -0.034; M -0.056; F -0.099; H -0.081; V -0.038; D -0.542; K -0.05; C -0.064; A -0.067; I -0.12; N -0.138; R 0.029; L -0.267; G -0.55; E -0.146; P -0.703
E42: I -0.407; T -0.048; P 0.053; Y -0.131; C -0.161; H 0.014; Q -0.05; A 0.016; D -0.137; L -0.255; K -0.046; R -0.032; F -0.355; S 0.028; W -0.3; M -0.1; G 0.011
K37: I -0.529; V -0.345; P -0.756; G -0.758; C -0.251; L -0.311; W -0.442; H -0.292; Y -0.681; N -0.328; T -0.364; F -0.58; Q -0.25; R 0.034; E -0.553; S -0.364; A -0.293
V44: E -0.132; D -0.238; M -0.045; S -0.086; L -0.14; P -0.789; Q -0.074; H -0.102; T -0.015; F -0.195; A -0.18; W -0.112; Y -0.099; C 0.033; R -0.051; K -0.016; G -0.414; I -0.04
E46: Y -0.013; S -0.051; W 0.039; G -0.449; K -0.04; I 0.052; T 0.071; Q 0.051; C -0.034; F 0.076; H 0.011; N 0.01; M 0.028; A -0.151; V 0.036; P -0.939
K32: D -0.332; T -0.118; N -0.192; R -0.052; M -0.178; E -0.077; Y -0.187; I -0.178; F -0.516; P -0.099; H -0.249; Q -0.129; A -0.037; W -0.483; S -0.138; L -0.179; G 0.001
V38: I -0.168; P -0.67; G -0.557; L -0.081; N -0.445; Q -0.704; A -0.196; F -0.352; T -0.481; R -0.654; Y -0.774; M -0.231; W -0.988; D -0.57; K -0.511; E -0.554; S -0.46
G41: I -1.41; S -0.945; H -0.737; N -0.853; M -0.888; Q -0.979; L -0.91; W -0.825; T -1.17; F -1.18; P -0.645; R -0.941; D -0.761; E -0.611; Y -1.13; C -0.911
G45: Y -0.422; I -0.487; P -0.975; T -0.246; C -0.038; L -0.591; S -0.146; F -0.373; V -0.345; M -0.585; H -0.619; Q -0.395; D -0.645; E -0.484; N -0.594; K -0.108; R -0.265; W -0.582; A 0.069
